Data on 1 molecule can be found in publication doi:10.1101/2021.12.28.474374 (bioRxiv, 2021).

For the assay, the target named is T1, Ctc1 OB-A (residues 1-183) (Tetrahymena, UniProt A0PGB2 1-183).
T1 sequence (looked up): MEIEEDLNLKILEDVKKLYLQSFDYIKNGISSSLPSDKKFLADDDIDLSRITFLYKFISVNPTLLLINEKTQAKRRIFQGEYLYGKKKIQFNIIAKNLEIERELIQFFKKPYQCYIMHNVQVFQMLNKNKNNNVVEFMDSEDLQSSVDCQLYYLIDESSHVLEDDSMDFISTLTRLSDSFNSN
Nature of the assay: NMR titration.

B1: p50 peptide (residues 228-250) (peptide, UniProt D2CVN8 228-250, looked up)
peptide: CQQDDFGDGCLLQIVNYTHQSLK
On to B1, for which the “stoichiometry N” value came to 1.
